According to patent US20210252150A1:

Legend:
[1] = biological target: HA of A/Hong Kong/1/1968 (H3N2) (influenza A virus (H3N2)) (UniProt Q91MA7)
[2] = biological target: HA of A/Singapore/1/1957 (H2) (influenza A virus (H2)) (UniProt Q67333)
[3] = biological target: HA of A/shearwater/Western Australia/2576/1979 (H15N9) (influenza A virus (H15N9))
[4] = biological target: HA of A/Shanghai/2/2013 (H7N9) (influenza A virus (H7N9))
[5] = biological target: HA of A/Netherlands/219/2003 (H7N7) (influenza A virus (H7N7))
[6] = biological target: HA of A/Indonesia/5/2005 (H5N1) (influenza A virus (H5N1))
[7] = biological target: HA of A/Hong Kong/1073/99 (H9) (influenza A virus (H9))
[8] = biological target: HA of A/mallard duck/Astrakhan/263/1982 (H14N5) (influenza A virus (H14N5))
[9] = biological target: HA of A/duck/Czechoslovakia/1956 (H4); assay: ELISA, recombinant HA
[10] = biological target: HA of A/California/04/2009 (H1N1) (influenza A virus (H1N1)) (UniProt P26140); assay: ELISA, recombinant HA

Work on “rFluA-20 heavy chain mutant C101A (antibody)” yielded an EC50 [1] of 0.13 µg/mL, an EC50 [2] of 0.44 µg/mL and an EC50 [3] of 0.11 µg/mL. For the same substance, the EC50 fold over wild-type rFluA-20 [4] was > 100 fold, the EC50 [5] was 0.17 µg/mL and the EC50 fold over wild-type rFluA-20 [6] was > 100 fold. The EC50 fold over wild-type rFluA-20 [7] was > 100 fold and the EC50 fold over wild-type rFluA-20 [8] was > 100 fold.
For “rFluA-20 light chain mutant Y49A (antibody)”, the EC50 fold over wild-type rFluA-20 [5] was > 100 fold.
With “rFluA-20 light chain mutant N53A (antibody)” the EC50 [3] was 0.06 µg/mL, the EC50 [4] was 0.87 µg/mL and the EC50 [5] was 0.05 µg/mL. The EC50 fold over wild-type rFluA-20 [6] was > 100 fold, the EC50 [7] was 0.17 µg/mL and the EC50 fold over wild-type rFluA-20 [8] was > 100 fold.
In the case of CR6261 (antibody), the EC50 [9] is reported as 0.023 µg/mL and the EC50 [10] is reported as 0.012 µg/mL.
With “rFluA-20 light chain mutant Q55A (antibody)” the EC50 fold over wild-type rFluA-20 [3] was > 100 fold and the EC50 [5] was 0.17 µg/mL.
